Results: paper PMC4658667

What was measured:
[1] = molecular target: CdiI^Nlact immunity protein from Neisseria lactamica ATCC 23970, His6-tagged (Neisseria lactamica ATCC 23970); assay: BLI
[2] = molecular target: CdiIo11^EC869 immunity protein from Escherichia coli EC869, His6-tagged (Escherichia coli EC869); assay: BLI

CdiA-CTo11^EC869, orphan-11 CdiA-CT toxin from Escherichia coli EC869 (domain or fragment)
Kd [1]: 82 µM

CdiA-CTo11^EC869/Δβ4β5, CdiA-CTo11^EC869 with the β-hairpin (Lys242–Thr252) replaced by a Gly-Ser-Gly linker (domain or fragment)
Kd [2]: > 300 µM
